Results taken from patent US20090068102A1, “TREATING STROKE” (BIOGEN IDEC MA INC., priority 2005, published 2009).

Columns and labels:
NF-κB = NF-κB luciferase reporter (pNF-κB-Luc) in transfected cortical neurons; assay type: cell-based, mouse
Method: (§1) Cell culture and transient transfection. Cortical neurons were prepared from embryonic day 16 (E16) mice. For transfection, cells were plated on 24-well plates precoated with poly-D-lysine (50 ng/ml) at a density of 200,000 cells per well. For RNA preparation, 2 million cells per well were plated on six-well plates. Cells were incubated in NEUROBASAL™ medium (Invitrogen) supplemented with B27 (Invitrogen), L-glutamine (0.5 mM), penicillin (100 IU/ml), and streptomycin (100 μg/ml). In these cultures, >95% of cells were positive for the neuronal marker NeuN. After 10 days in vitro, cells were transfected using LIPOFECTAMINE™ 2000 (Invitrogen) and 1 ng per well of the NF-κB reporter plasmid pNF-κB-Luc, which has five tandem repeats of an NF-κB binding site (Stratagene, Amsterdam, The Netherlands), according to the manufacturer's protocol. After 24 hours, cells were stimulated as indicated and harvested. Luciferase activity was measured as described (Sallmann et al. (2000) J. Neurosci. 20:8637-8642).
As indicated, cortical neurons were prepared from a transgenic mouse line (NSE-IκBα-SR) that expressed the NF-κB super-repressor, a mutant of IκBα (IκBα-SR), selectively in neurons. In this transgene, two serine residues, which are phosphorylated by the IκB kinase (IKK), are exchanged to alanines. Neuronal expression is driven by a 1.8 KB fragment of the rat neuron-specific enolase (NSE) promoter. The cell dissociation was performed individually from the brain of each transgenic or wild-type embryo. To control for transfection efficiency, cortical neurons of NSE-IκBα-SR mice and wild-type littermates were cotransfected with 0.1 μg Per well of phRL-TK (Promega, Mannheim, Germany) in addition to pNF-κB-Luc.

cortical neurons [1] = test: TWEAK-induced cell death in cortical neurons (DAPI and TUNEL staining); assay type: cell-based
Method: as §1
As indicated, cortical neurons were prepared from a transgenic mouse line (NSE-IκBα-SR) that expressed the NF-κB super-repressor, a mutant of IκBα (IκBα-SR), selectively in neurons. In this transgene, two serine residues, which are phosphorylated by the IκB kinase (IKK), are exchanged to alanines. Neuronal expression is driven by a 1.8 KB fragment of the rat neuron-specific enolase (NSE) promoter. The cell dissociation was performed individually from the brain of each transgenic or wild-type embryo. […]
Cell death assays. […] TUNEL and DAPI-positive cells were detected under a fluorescent microscope. On each coverslip, five randomly selected fields were counted with a 40× objective (corresponding to ˜800 cells per coverslip). […] Lactate dehydrogenase (LDH) activity in medium was quantified with the Cytotoxicity Detection Kit (LDH; Roche). LDH activity in untreated sister cultures was subtracted, and the LDH activity was expressed as percentage of the maximally releasable LDH pool in the presence of 1 mM glutamate.

cortical neurons [2] = test: Cell Death Detection ELISA (histone-associated DNA fragments) in cortical neurons; assay type: cell-based, mouse; settings: 100 ng/ml, 24 hr
Method: Cell death assays. For terminal deoxynucleotidyl transferase-mediated biotinylated UTP nick end labeling (TUNEL) staining, the cells were fixed in 4% paraformaldehyde at room temperature for 30 minutes. Then, cells were washed twice in PBS for 5 minutes and treated for 2 minutes with 200 μl of permeabilization solution (0.1% Triton X-100 and 0.1% sodium citrate in PBS) at 4° C. After washing, sections were incubated with 50 μl of TUNEL reaction mix (enzyme solution diluted 1:6 in labeling solution; In Situ Cell Detection Kit, Fluorescein; Roche, Mannheim, Germany) for 1 hour at 37° C. in the dark. Then, coverslips were mounted with medium containing 4′,6-diamidino-2-phenylindole dihydrochloride (DAPI; VECTASHIELD®; Vector Laboratories, Burlingame, Calif.). TUNEL and DAPI-positive cells were detected under a fluorescent microscope. On each coverslip, five randomly selected fields were counted with a 40× objective (corresponding to ˜800 cells per coverslip). Cell Death Detection ELISA^Plus (Roche) was performed according to the manufacturer's instructions. Lactate dehydrogenase (LDH) activity in medium was quantified with the Cytotoxicity Detection Kit (LDH; Roche). LDH activity in untreated sister cultures was subtracted, and the LDH activity was expressed as percentage of the maximally releasable LDH pool in the presence of 1 mM glutamate.

[3] = exposure for 24 hours, 100 ng/ml

| Molecule | NF-κB activation by rhTWEAK and Fc-hTWEAK (NF-κB; BMS-345541 25 μM) | nuclear condensation (DAPI stain) (cortical neurons [1]; [3]) | number of cortical neurons that were TUNEL positive (cortical neurons [1]; [3]) | cell death (TUNEL) in IκBα-SR-expressing neurons vs wild-type (cortical neurons [1]; rhTWEAK 100 ng/ml, 24 hours) | DNA-histone complexes specific to apoptotic DNA fragmentation (ELISA) (cortical neurons [2]) | effect size in DNA-histone ELISA compared with camptothecin (cortical neurons [2]; vs 10 μM camptothecin) | NF-κB stimulation in neurons of NSE-IκBα-SR mice vs wild-type littermates (NF-κB; rhTWEAK 100 ng/ml) | NF-κB activity (luciferase) (NF-κB; stimulation for 24 hours) |
| --- | --- | --- | --- | --- | --- | --- | --- | --- |
| Cc1ccc2nc(NCCN)c3ncc(C)n3c2c1 [BMS-345541, reference compound] | blocked |  |  |  |  |  |  |  |
| rhTWEAK: recombinant soluble human TWEAK containing amino-acid residues A106-H249 (protein, UniProt O43508 106-249, looked up, fragment) AIAAHYEVHPRPGQDGAQAGVDGTVSGWEEARINSSSPLRYNRQIGEFIVTRAGLYYLYCQVHFDEGKAVYLKLDLLVDGVLALRCLEEFSATAASSLGPQLRLCQVSGLLALRPGSSLRIRTLPWAHLKAAPFLTYFGLFQVH |  | induced nuclear condensation | increased significantly | protected from cell death | programmed cell death being induced | comparable with the one with 10 μM camptothecin | significantly less | stimulated NF-κB activity in a concentration-dependent manner |
